Measurements as given in article PMC2963451.

Biological target: Gag (GagΔp6) (HIV-1 BH10, UniProt P03347 1-447)
Experiment: fluorescence anisotropy

Binder | Kd [nM]
AGCTGCTTTTTGCCTGTACT (ssDNA) [JL936] | 9
AGCUGCUUUUUGCCUGUACU (ssRNA) [JL943] | 8
